T1: Full-length Cyno 4-1BB (cynomolgus monkey, UniProt Q07011 24-255 (human entry))
T1 construct: on Jurkat or CHO cells; also called FOB006; cynomolgus 4-1BB
T1 chain: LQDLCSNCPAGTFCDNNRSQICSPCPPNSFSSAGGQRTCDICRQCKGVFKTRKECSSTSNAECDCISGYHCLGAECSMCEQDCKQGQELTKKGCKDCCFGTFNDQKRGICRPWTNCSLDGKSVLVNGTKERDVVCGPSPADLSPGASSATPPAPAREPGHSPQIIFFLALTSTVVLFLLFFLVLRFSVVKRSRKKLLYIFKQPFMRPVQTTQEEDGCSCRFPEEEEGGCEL

T2: Human OX40 ECD-AFH (human)
T2 construct: ECD'; entry includes the C-terminal tags; also called OXF003; Human OX40 ECD-avi-flag-his
T2 chain: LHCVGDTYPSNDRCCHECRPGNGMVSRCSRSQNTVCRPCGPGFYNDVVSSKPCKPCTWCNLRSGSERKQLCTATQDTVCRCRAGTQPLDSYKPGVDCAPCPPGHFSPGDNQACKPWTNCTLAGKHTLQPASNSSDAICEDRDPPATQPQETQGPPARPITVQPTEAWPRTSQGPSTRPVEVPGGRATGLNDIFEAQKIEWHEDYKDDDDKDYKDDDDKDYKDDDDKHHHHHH

T3: Cyno OX40-AFH (cynomolgus monkey)
T3 construct: entry includes the tags; also called OXF005; cyno OX40 ECD
T3 chain: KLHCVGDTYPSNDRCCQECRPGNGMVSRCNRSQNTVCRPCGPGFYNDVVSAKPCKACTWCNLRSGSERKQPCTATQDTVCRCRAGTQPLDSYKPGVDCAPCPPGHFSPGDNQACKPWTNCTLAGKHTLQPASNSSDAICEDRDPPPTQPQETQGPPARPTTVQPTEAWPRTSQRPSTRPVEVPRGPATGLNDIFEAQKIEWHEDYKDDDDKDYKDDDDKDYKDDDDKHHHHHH

T4: Cyno 4-1BB ECD-AFH (cynomolgus monkey)
T4 construct: entry includes the tags; also called FOB004; Cyno CD137 ECD-avi-flag-his
T4 chain: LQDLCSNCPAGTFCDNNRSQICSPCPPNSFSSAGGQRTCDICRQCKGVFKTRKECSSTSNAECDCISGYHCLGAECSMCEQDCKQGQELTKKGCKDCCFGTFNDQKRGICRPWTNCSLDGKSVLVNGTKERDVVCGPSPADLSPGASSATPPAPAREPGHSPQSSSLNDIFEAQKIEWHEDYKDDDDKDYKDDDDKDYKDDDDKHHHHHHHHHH

T5: Full-length Human OX40 (human, UniProt P43489 29-277)
T5 construct: also called OXF001; human OX40/CHO
T5 sequence: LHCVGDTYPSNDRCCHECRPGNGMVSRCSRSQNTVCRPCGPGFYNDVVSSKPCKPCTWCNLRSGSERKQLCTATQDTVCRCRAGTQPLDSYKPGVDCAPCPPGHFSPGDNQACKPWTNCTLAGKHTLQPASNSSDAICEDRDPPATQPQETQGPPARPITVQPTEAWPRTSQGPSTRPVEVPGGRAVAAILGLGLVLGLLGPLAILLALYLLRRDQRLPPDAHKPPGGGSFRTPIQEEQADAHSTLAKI

B1: FXX01066 (bispecific antibody)
chain: EVQLVQSGAEVKKPGASVKVSCKASGYTFTSYWMNWVRQAPGQGLEWMGNIYPSGGSTNYAQKFQGRVTMTVDTSTSTVYMELSSLRSEDTAVYYCASFSDGYYAYAMDYWGQGTLVTVSSGGGGSGGGGSGGGGSGGGGSEIVMTQSPATLSLSPGERATLSCRASQSVSSYLNWYQQKPGQAPRLLIYYASRRHTGIPARFSGSGSGTDFTLTISSLQPEDFAVYYCQQGYNLPYTFGQGTKVEIKEPKSSDKTHTCPPCPAPPAAAPSVFLFPPKPKDTLMISRTPEVTCVVVDVSHEDPEVKFNWYVDGVEVHNAKTKPREEQYNSTYRVVSVLTVLHQDWLNGKEYKCAVSNKALPAPIEKTISKAKGQPREPQVYTLPPSRDELTKNQVSLTCLVKGFYPSDIAVEWESNGQPENNYKTTPPVLDSDGSFFLYSKLTVDKSRWQQGNVFSCSVMHEALHNHYTQKSLSLSPGGGGSPSSYVLTQPPSVSVAPGQTARITCGGNNIGSKSVNWFQQKPGQAPVLVVYDDSGRPSGIPERFSGSTSGNTATLTISRVEAGDEADYYCQVWDSSSDHVVFGGGTKLTVLGGGGSGGGGSGGGGSGGGGSQVQLVESGGGVVQPGRSLRLSCAASGFTLSYYGMHWVRQAPGKGLEWVAAISHDGSDKYYADSVKGRFTISRDNSKNTLYLQMNSLRAEDTAVYYCSNDQFDPWGQGTLVTVSSR
notes: ADAPTIR scFv-Fc-scFv, anti-4-1BB (VH-VL) N-terminal, anti-OX40 C-terminal, PAA (del) Fc; also called FX01066
B2: FXX01101 (bispecific antibody)
chain: B1 chain with T690R
notes: ADAPTIR anti-4-1BB (HL) x anti-OX40 with T86R; PAA (del) Fc; also called FX01101
B3: FXX01102 (bispecific antibody)
chain: B1 chain with Q500K, T690R
notes: ADAPTIR anti-4-1BB (HL) x anti-OX40 with Q17K and T86R; PAA (del) Fc; also called FX01102
B4: FXX01119 (bispecific antibody)
chain: B1 chain with Q500K, I541V, E543N, T690R
notes: ADAPTIR anti-4-1BB x anti-OX40, pI variant; PAA (del) Fc
B5: FXX01111 (bispecific antibody)
chain: B1 chain with I541V, E543N
notes: as for B4
B6: FXX01115 (bispecific antibody)
chain: B1 chain with I541V, E543N, T690R
notes: as for B4

Residue numbers refer to the chain shown, from its start. In names and notes the source's numbering stands.

Usually EC50 stands for the concentration giving half of the maximal effect. A low value points to an effect from little substance. In general, EC50 (read off the curve) refers to the concentration giving half of the maximal effect. A low value points to greater potency. By Kd is commonly meant the equilibrium constant for the complex coming apart. A higher Kd goes with a looser complex. One may read the koff as a measure of how fast the partners let go of each other. A lower koff goes with slow dissociation. The term kon denotes the rate constant with which the complex forms. Read a high kon as faster complex formation.

One test addresses T6, Full-length Human 4-1BB (human, UniProt Q07011 24-255).
T6 construct: also called FOB005; CD137
The experiment in a line: flow cytometry, Jurkat cells expressing human 4-1BB. The method, then:
(§1) FIGS. 12A-12D show the binding of anti-4-1BB x anti-OX40 constructs, with additional humanization in 4-1BB and altered orientations of binding domains, human (12A) or cynomolgus (12C) 4-1BB-expressing Jurkat cells or human (12B) or cynomolgus (12D) OX40-expressing CHOK1SV cells. Serial dilutions of ADAPTIR™ constructs were incubated with transfected cells and subsequently labelled with a fluorescently-conjugated goat-a-human Fc secondary antibody. […] (See Example 19.)
(§2) Binding studies were performed using the flow cytometry-based staining procedures described above.
For the molecule B1, the EC50 was determined as 230 pM and the “max MFI” value amounted to 4710 MFI.

Take B2: the midpoint of the response, the EC50, lay at 250 pM and the “max MFI” value is 4850 MFI.

On to B3, for which the EC50 worked out at 180 pM and the “max MFI” value was determined as 4850 MFI.

Another test concerns the target T1, Full-length Cyno 4-1BB. Nature of the test: flow cytometry on Jurkat cells transfected with cynomolgus 4-1BB, goat anti-human Fc secondary antibody, MFI (Mean). The protocol:
Serial dilutions of ADAPTIR™ constructs were incubated with transfected target cells and subsequently labelled with a fluorescently-conjugated goat-a-human Fc secondary antibody. […] (See Example 25.)
On the technique in general: A flow cytometer gives signals particle by particle.
As for B1, the “EC50 (read off the curve)” value is approximately 400 pM.

For B2, the 50% effective concentration (EC50 (read off the curve)) was approximately 300 pM.

Consider B3, for which the “EC50 (read off the curve)” value was approximately 300 pM.

Turning to B4, the half-maximal effective concentration (EC50 (read off the curve)) was approximately 300 pM.

Turning to B5, the “EC50 (read off the curve)” value was approximately 300 pM.

With B6, the 50% effective concentration (EC50 (read off the curve)) was approximately 300 pM.

The target of a further test is T1, Full-length Cyno 4-1BB. The description is as above. This is another data set of the same source. The protocol: as §1, §2
Turning to B1, the concentration giving a half-maximal response (EC50 (read off the curve)) was approximately 300 pM.

For the molecule B2, the “EC50 (read off the curve)” value was approximately 300 pM.

In the case of B3, the “EC50 (read off the curve)” value is approximately 300 pM.

For the next test, the target named is T2, Human OX40 ECD-AFH. Nature of the test: SPR (Biacore 8K), construct captured, monovalent ECD. For orientation: SPR reads the build-up and loss of mass on a sensor chip optically.
On to B1, for which the Kd was less than 1000 pM, the koff came out at 0.00027 s⁻¹ and the on-rate (kon) is 1.1e+06 M⁻¹ s⁻¹.

On to B2, for which the Kd was less than 1000 pM, the koff was 0.00029 s⁻¹ and the kon stood at 980000 M⁻¹ s⁻¹.

B3 displayed a Kd of less than 1000 pM, an off-rate constant (koff) of 0.00025 s⁻¹ and a kon of 1e+06 M⁻¹ s⁻¹.

Take B4: the Kd is 300 pM, the koff came to 0.00031 s⁻¹ and the association rate constant (kon) is 920000 M⁻¹ s⁻¹.

B5 registered a Kd of less than 1000 pM, a koff of 0.00038 s⁻¹ and an association rate constant (kon) of 930000 M⁻¹ s⁻¹.

On to B6, for which the Kd is less than 1000 pM, the koff was determined as 0.0003 s⁻¹ and the association rate constant (kon) was 980000 M⁻¹ s⁻¹.

The next test has as its target T3, Cyno OX40-AFH. Described as above.
B1 returned a Kd of less than 1000 pM, a koff of 0.00019 s⁻¹ and a kon of 1.5e+06 M⁻¹ s⁻¹.

In turn, B2 showed a Kd of less than 1000 pM, a koff of 0.00027 s⁻¹ and a kon of 1.1e+06 M⁻¹ s⁻¹.

On to B3, for which the Kd is less than 1000 pM, the koff turned out to be 0.00023 s⁻¹ and the kon was found to be 1.1e+06 M⁻¹ s⁻¹.

In turn, B4 yielded a Kd of 200 pM, a koff of 0.00023 s⁻¹ and a kon of 1e+06 M⁻¹ s⁻¹.

The molecule B5 displayed a Kd of less than 1000 pM, a koff of 0.00029 s⁻¹ and a kon of 1.1e+06 M⁻¹ s⁻¹.

B6 showed a Kd of less than 1000 pM, a koff of 0.00021 s⁻¹ and a kon of 1.1e+06 M⁻¹ s⁻¹.

For the next test, the target named is T4, Cyno 4-1BB ECD-AFH. The description is as above.
In turn, B1 showed a dissociation constant Kd of 92000 pM, a koff of 0.0092 s⁻¹ and a kon of 100000 M⁻¹ s⁻¹.

Regarding B2, the affinity, expressed as Kd, was 76000 pM; the koff was 0.0077 s⁻¹; the kon is 100000 M⁻¹ s⁻¹.

Take B3: the affinity, expressed as Kd, was 75000 pM; the koff stood at 0.0074 s⁻¹; the kon was 98000 M⁻¹ s⁻¹.

For B4, the Kd was 79000 pM, the dissociation rate constant (koff) is 0.0075 s⁻¹ and the kon was determined as 95000 M⁻¹ s⁻¹.

Molecule B5 displayed a Kd of 81000 pM, a koff of 0.008 s⁻¹ and an association rate constant (kon) of 99000 M⁻¹ s⁻¹.

B6 showed a dissociation constant (Kd) of 72000 pM, a koff of 0.0074 s⁻¹ and a kon of 100000 M⁻¹ s⁻¹.

A further test has as its target T5, Full-length Human OX40. Nature of the test: flow cytometry, CHO cells expressing human OX40. The method, then:
as §1, §2
For B1, the half-maximal effective concentration (EC50) stood at 290 pM and the “max MFI” value came to 10400 MFI.

B2: the response was half-maximal at 310 pM (EC50) and the “max MFI” value is 10500 MFI.

For B3, it took 340 pM to reach a half-maximal effect (EC50) and the “max MFI” value is 10500 MFI.

These data come from US20220242962A1 (APTEVO RESEARCH AND DEVELOPMENT, published 2022).
